From patent US20240115720A1 (published 2024)
Like-named read-outs stand apart in the source and are kept apart here.

Experiments:
Assay in all cases: BLI (Octet HTX)
[1] = target: T1, Recombinant Human DLL3 Protein (amino acids Ala27-Ala479, cat #9749-DL, R&D Systems) (UniProt Q9NYJ7 27-479)
T1 chain: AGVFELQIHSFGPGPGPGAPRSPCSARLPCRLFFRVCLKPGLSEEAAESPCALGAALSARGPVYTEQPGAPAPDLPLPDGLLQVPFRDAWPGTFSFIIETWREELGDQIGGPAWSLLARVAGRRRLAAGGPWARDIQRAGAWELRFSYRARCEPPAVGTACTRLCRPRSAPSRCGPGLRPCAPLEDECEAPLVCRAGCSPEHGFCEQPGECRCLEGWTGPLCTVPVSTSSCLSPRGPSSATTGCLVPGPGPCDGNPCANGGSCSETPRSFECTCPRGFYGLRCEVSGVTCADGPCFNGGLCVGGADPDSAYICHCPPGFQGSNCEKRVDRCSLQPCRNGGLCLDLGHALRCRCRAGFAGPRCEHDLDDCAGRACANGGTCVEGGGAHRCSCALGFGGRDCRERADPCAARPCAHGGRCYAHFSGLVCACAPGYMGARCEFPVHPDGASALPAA

[2] = target: T1, Recombinant Human DLL3 Protein (amino …)
[3] = target: T1, Recombinant Human DLL3 Protein (amino …)

B1: 10-O18-A (antibody, V domains shown)
VH: QVQLQESGPGLVKPSETLSLTCTVSGGSINSYYWSWIRQPPGKGLEWIGYIFYSGITNYNPSLKSRVTISLDTSKNQFSLKLSSVTAADTAVYYCARIGVAGFYFDYWGQGTLVTVSS
VL: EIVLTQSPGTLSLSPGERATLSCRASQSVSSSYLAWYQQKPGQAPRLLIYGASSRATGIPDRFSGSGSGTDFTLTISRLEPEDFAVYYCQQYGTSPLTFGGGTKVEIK
For B1, the Kd [1] was 0.602 nM and the Kd [2] was 0.62 nM.

B2: 7-I1-B (antibody, V domains shown)
VH: EVQLVESGGGLVKPGGSLRLSCAASGFTFSNTWMSWVRQAPGKGLEWVGRIKSKSDGGTTDYAAPVKGRFTISRDDSKNTLYLQMNSLKTEDTAVYYCTQYYWNSFDYWGQGTLVTVSS
VL: not shown
B2 showed a Kd [3] of 0.686 nM and a Kd [2] of 0.68 nM.

B3: 2-C8-A (antibody, V domains shown)
VH: EVQLVESGGGLVQPGGSQRLSCAASGFTFSSYWMNWVRQAPGKGLEWVANIKEDGSEKYYVDSVKGRFTISRDNAKNSLYLQMNSLRAEDTAVYYCARDPGWAPFDYWGQGTLVTVSS
VL: DIQMSQSPSSLSASVGDRVTITCRASQGISNYLAWFQQKPGKAPKSLIYAASSLQSGVPSKFSGSGSGTDFTLAISSLQPEDFATYYCQQYNSFPYTFGQGTTLEIK
In the case of B3, the Kd [1] is reported as 0.668 nM and the Kd [2] is reported as 0.668 nM.

B4: 6-G23-F (antibody, V domains shown)
VH: QVQLVQSGAEVKKPGASVKVSCKASGYTFTSYYIHWVRQAPGQGLEWMGIIDPSDGSTNYAQKFQGRVTMTRDTSTSTVYMELSSLRSEDTAVYYCARDREYNYYGLDVWGQGTTVTVSS
VL: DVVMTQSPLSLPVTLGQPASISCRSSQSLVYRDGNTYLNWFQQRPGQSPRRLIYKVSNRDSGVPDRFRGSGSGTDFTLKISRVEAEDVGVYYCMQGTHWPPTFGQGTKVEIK
With B4 the Kd [3] was 0.16 nM and the Kd [2] was 0.16 nM.
